Data published in patent US20170159020A1.

Experiments:
α6β1 integrin [1] = target: α6β1 integrin (UniProt P23229); experiment: solid-phase integrin binding assay: 511E8 coated on plate, 10 nM α6β1 integrin, A490
α6β1 integrin [2] = target: α6β1 integrin (UniProt P23229); experiment: solid-phase integrin binding assay: 521E8 coated on plate, 10 nM α6β1 integrin, A490

Sequence of UniProt P23229 (P23229 other isoform, or with tags, fused parts or gaps limits assumed, chain 1 of 2): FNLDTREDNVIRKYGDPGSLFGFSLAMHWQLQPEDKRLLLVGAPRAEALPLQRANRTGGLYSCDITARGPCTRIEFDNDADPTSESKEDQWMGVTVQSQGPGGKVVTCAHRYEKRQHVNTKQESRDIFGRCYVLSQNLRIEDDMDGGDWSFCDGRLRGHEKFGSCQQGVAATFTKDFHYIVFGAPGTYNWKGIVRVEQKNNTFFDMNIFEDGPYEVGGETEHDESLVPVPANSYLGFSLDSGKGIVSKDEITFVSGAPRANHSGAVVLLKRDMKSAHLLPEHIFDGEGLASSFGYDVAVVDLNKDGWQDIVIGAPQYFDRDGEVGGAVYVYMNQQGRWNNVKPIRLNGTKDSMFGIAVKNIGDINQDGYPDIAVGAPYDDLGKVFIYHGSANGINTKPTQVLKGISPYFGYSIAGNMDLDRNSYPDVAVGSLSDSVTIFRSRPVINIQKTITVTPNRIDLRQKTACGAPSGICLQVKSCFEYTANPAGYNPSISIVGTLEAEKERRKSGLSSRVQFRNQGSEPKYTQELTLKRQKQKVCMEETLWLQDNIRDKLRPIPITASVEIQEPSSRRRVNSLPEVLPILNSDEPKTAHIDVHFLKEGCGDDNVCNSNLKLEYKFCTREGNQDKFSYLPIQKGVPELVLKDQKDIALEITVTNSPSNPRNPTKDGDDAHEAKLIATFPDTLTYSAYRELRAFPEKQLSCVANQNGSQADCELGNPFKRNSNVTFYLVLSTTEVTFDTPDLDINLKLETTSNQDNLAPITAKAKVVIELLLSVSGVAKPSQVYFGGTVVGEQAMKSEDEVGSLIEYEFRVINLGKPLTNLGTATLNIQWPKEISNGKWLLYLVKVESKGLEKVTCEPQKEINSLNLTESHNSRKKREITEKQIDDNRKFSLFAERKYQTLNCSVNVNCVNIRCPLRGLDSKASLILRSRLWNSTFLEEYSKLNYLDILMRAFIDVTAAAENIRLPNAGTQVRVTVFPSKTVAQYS
Sequence of UniProt P23229 (P05556 21-728 limits assumed, chain 2 of 2, further chain): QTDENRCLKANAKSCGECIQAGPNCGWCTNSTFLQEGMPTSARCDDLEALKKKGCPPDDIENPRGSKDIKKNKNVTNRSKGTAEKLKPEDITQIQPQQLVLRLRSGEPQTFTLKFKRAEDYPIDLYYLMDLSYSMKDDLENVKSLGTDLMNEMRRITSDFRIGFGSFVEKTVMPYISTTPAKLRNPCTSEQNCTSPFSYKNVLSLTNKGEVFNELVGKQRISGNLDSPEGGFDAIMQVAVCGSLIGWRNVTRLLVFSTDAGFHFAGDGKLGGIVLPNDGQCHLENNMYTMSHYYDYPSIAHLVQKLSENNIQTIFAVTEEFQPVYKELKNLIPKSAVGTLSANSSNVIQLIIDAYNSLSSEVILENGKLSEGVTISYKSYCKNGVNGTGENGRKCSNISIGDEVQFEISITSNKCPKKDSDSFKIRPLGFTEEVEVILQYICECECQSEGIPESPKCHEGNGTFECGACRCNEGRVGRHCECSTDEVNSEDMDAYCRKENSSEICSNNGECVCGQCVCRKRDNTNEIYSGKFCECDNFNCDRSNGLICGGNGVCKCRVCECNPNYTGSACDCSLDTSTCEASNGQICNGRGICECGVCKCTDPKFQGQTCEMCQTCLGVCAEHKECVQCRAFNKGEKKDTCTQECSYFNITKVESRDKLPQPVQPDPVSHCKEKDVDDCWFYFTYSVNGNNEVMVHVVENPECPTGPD

fold increase in integrin binding activity by addition of gelatin (500 µg/mL by context) to the coating solution, against 511E8 coated alone, at 2.7 nM 511E8 (α6β1 integrin [1]) | increase in integrin binding activity by addition of 50 µg/mL HSA to the coating solution, against 511E8 coated alone (α6β1 integrin [1]) | increase in integrin binding activity by addition of 50 µg/mL gelatin to the coating solution, against 511E8 coated alone (α6β1 integrin [1]) | increase in integrin binding activity by addition of HSA (500 µg/mL by context) to the coating solution, against 511E8 coated alone, at 2.7 nM 511E8 (α6β1 integrin [1]) | increase in integrin binding activity by addition of 50 µg/mL HSA to the coating solution, against 521E8 coated alone (α6β1 integrin [2]) | increase in integrin binding activity by addition of 50 µg/mL gelatin to the coating solution, against 521E8 coated alone (α6β1 integrin [2]) | increase in integrin binding activity by addition of 500 µg/mL HSA to the coating solution, against 521E8 coated alone, at 2.7 nM 521E8 (α6β1 integrin [2]) | increase in integrin binding activity by addition of gelatin (500 µg/mL by context) to the coating solution, against 521E8 coated alone, at 2.7 nM 521E8 (α6β1 integrin [2]) | Substance
> 2 fold | 10% | 20 to 60% | > 80% | – | – | – | – | Human recombinant laminin 511E8 (from UniProt O15230 2534-3327; P07942 1561-1786; P11047 1362-1608) (ligand)
– | – | – | – | 10 to 20% | 10 to 60% | > 60% | > 80% | Human recombinant laminin 521E8 (from UniProt O15230 2534-3327; P55268 1573-1798; P11047 1362-1608) (ligand)
